What was measured:
Type in all cases: biochemical
PKC-theta = molecular target: T1, PKC-theta (Homo sapiens, UniProt Q04759); assay: In vitro kinase assay: peptide phosphorylation by PKC-theta; details: for PKC theta phosphorylation: normalized to best substrate
T1 construct: His-tag; made in house; host or cells: baculovirus-infected Sf9 cells
Outline: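 Recombinant human PKC-theta, expressed in baculovirus-infected Sf9 cells and purified on a nickel chelating column, was incubated with biotinylated peptides, 100 μM ATP containing ^32P-gamma ATP, and PKC buffer with CaCl2, MgCl2, phosphatidyl serine and PMA at 30° C. Reactions were stopped with ATP/EDTA. Peptides were captured on streptavidin-coated plates, and phosphorylation was normalized to the best substrate.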

AKT1 = molecular target: T2, AKT1 (Homo sapiens, UniProt P31749); assay: In vitro kinase assay: peptide phosphorylation by AKT1; details: normalized to best substrate
T2 construct: purchased Panvera
Experimental: (§1) Catalytically active preparations of the kinases of interest were either purchased or prepared. Purchased and tested active kinase preparations including the following: PKC-alpha, PKC-delta, PKC-epsilon, PKC-zeta, PKC-mu, PKA, PKG from Calbiochem, ROK alpha/ROCK-II, active from Upstate Biotechnology, and AKT1 from Panvera.
(§2) The conditions of the kinase assay and the amount of active kinase used varied with the kinase and with the accuracy needed. For a typical experiment, 5-20 ng of kinase was used per well and each peptide pool was assayed in duplicate wells. Note that the absolute amount of kinase used was not usually a critical parameter, because the desired information related to specificity of the kinase not its absolute activity, and robustness of the assay depends on comparisons of the same amount of kinase on different peptides. The combination of kinase concentration and assay duration was modified to assure that the stoichiometry of peptide phosphorylation never exceeded 5%. The choice of kinase buffer depended on the kinase being analyzed. For studies of PKC, 100 mM HEPES, 0.05% Triton-X100, 1 mM CaCl2, 20 mM MgCl2, 0.2 mg/ml phosphatidyl serine (Avanti Polar Lipids), PMA 100 ng/ml was typically used. The lipid stock was prepared by transferring 3 mg phosphatidyl serine into iced mixture of 450 μl water plus 50 μl of 10% Triton-X100, sonicating 10 times on ice for 1 sec each.
(§3) The kinase reaction mixture was assembled by sequential addition to a tube held on ice of: 5 μl peptide (100 μM for final concentration of 10 μM), 15 μl of kinase (typically 5 ng/well, in appropriate kinase buffer), 30 μl of ATP (1 uCi/well of ^32P-gamma ATP in a stock of 167 μM cold ATP in the kinase buffer; for final concentration for 100 μM ATP). The mixture was rapidly warmed to desired reaction temperature (30° C. for PKC) and incubated for the desired duration (usually 10 minutes). The kinase assay was terminated by transfer to 4° C. water batch, and rapid addition of an equal volume (50 μl) of stop solution [0.1M ATP+0.1M EDTA in water, pH 8].
(§4) The peptides were then captured from the reaction mixture by transfer to a Reacti-Bind Streptavidin High Binding Capacity Coated Plates (HBC) (Pierce Biotechnology) as follows. The HBC plates were pre-rinsed three times with PBS/Tween PBS/Tween20 0.05% (PBS/Tween). Part of all of the reaction mixture was then transferred wells of a HBC plate pre-filled with 90 μl of phosphate-buffered saline (PBS); typically each aliquots of each phosphorylation reaction were transferred to duplicate HBC plates to assure accuracy by additional replication
(§5) For kinase assays done at the standard peptide concentration of 10 μM, the peptide concentration in the reaction mixture becomes 5 μM after addition of the stop solution; consequently 10 μl of the reaction (50 pMoles of peptide) was transferred to the HBC plate. More generally, the amount of reaction mixture transferred was estimated to be about 50 pMoles of peptide. […] The HBC plates were incubated for 0.5 to 1.5 hr at room temperature for complete binding of biotinylated peptides to plate-bound streptavidin. The HBC plates were then washed extensively with PBS/Tween. Five washes were done routinely and additional wash steps were added if the wash solution removed from the plate had measurable radioactivity as detected using a Geiger counter. This step is essential to obtaining a good the signal to noise ratio because the fraction of radioactivity incorporated in the peptides was a tiny fraction of the total in the reaction mixture. The wells were air-dried. A volume of 40-50 μl of microScint-20 (Packard Instruments) was added to each well. The plates were covered with stick-on film sheet. Radioactive emissions were measured in a TopCount NXT Microplate Scintillation and Luminescence Counter (Packard Instruments). Typically samples were counted for 5 minutes (or more) to improve the signal to noise ratio when counts were low. […]

PKA = molecular target: T3, PKA (Homo sapiens, UniProt P17612); assay: In vitro kinase assay: peptide phosphorylation by PKA; details: normalized to best substrate
T3 construct: purchased Calbiochem
Experimental: as §1, §2, §3, §4, §5

T2 sequence (P31749 whole entry, species assumed): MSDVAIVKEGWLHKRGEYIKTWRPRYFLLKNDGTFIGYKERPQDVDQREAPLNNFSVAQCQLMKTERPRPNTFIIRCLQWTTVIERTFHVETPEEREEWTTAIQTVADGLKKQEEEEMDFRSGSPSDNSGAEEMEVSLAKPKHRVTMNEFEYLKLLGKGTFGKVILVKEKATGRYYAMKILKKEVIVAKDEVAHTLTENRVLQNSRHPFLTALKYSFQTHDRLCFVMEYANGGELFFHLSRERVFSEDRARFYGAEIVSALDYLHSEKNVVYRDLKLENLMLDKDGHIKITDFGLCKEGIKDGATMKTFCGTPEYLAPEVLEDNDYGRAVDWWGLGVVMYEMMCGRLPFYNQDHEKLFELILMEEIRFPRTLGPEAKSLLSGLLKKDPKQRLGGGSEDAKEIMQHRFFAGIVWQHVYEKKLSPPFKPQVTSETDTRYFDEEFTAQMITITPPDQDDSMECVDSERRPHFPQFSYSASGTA
T1 sequence (Q04759 whole entry): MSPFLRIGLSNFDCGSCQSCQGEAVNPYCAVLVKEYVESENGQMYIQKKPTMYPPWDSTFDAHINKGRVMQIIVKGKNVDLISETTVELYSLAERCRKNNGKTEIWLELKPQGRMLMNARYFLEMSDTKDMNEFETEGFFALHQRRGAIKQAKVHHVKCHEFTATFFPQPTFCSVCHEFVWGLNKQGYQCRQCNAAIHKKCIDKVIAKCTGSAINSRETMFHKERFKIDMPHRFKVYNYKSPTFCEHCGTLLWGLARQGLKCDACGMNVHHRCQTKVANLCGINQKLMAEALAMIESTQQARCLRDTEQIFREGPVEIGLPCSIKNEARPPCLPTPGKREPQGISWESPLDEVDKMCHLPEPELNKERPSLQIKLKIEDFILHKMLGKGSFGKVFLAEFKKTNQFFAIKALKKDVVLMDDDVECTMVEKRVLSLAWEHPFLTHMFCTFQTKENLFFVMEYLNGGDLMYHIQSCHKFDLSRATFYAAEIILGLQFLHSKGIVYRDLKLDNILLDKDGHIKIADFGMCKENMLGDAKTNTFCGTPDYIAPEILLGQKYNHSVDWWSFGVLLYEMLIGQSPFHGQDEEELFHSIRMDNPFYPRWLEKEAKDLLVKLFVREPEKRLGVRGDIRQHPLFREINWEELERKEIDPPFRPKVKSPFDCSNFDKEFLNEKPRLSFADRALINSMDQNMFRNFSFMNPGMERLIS

109 (KEVVRTDSLKGRRGR) [compound 109] was tested, and the PKC theta phosphorylation (PKC-theta) was 9%, the AKT1 phosphorylation (AKT1) was 2% and the PKA phosphorylation (PKA) was 1%.
83 (RKIPKRPGSVHRTPSRQ) [compound 83] was tested, and the PKC theta phosphorylation (PKC-theta) was 92%, the AKT1 phosphorylation (AKT1) was 6% and the PKA phosphorylation (PKA) was 2%.
104 (EKIKRSSLKKVDSLKK) [compound 104] was tested, and the PKC theta phosphorylation (PKC-theta) was 25%, the AKT1 phosphorylation (AKT1) was 2% and the PKA phosphorylation (PKA) was 1%.
96 (RGFLRSASLGRRASFHLE) [compound 96] gave a PKC theta phosphorylation (PKC-theta) of 21%, an AKT1 phosphorylation (AKT1) of 32% and a PKA phosphorylation (PKA) of 86%.
With 103 (LLKKRDSFRTPRDSKLE) [compound 103] the PKC theta phosphorylation (PKC-theta) was 24%, the AKT1 phosphorylation (AKT1) was 7% and the PKA phosphorylation (PKA) was 3%.
With 95 (KKKFRTPSFLKKSKK) [compound 95] the PKC theta phosphorylation (PKC-theta) was 42%, the AKT1 phosphorylation (AKT1) was 9% and the PKA phosphorylation (PKA) was 2%.
93 (AARKKRISVKKKQEQ) [compound 93] gave a PKC theta phosphorylation (PKC-theta) of 40%, an AKT1 phosphorylation (AKT1) of 7% and a PKA phosphorylation (PKA) of 1%.
In the case of 108 (KATTKKRTLRKNDRK) [compound 108], the PKC theta phosphorylation (PKC-theta) is reported as 32%, the AKT1 phosphorylation (AKT1) is reported as 1% and the PKA phosphorylation (PKA) is reported as 0%.
In the case of 76 (HVRRRRGTFKRSKLRARD) [compound 76], the “Peptide phosphorylation by PKC-theta” value (PKC-theta; Table 8) is reported as 99, the PKC theta phosphorylation (PKC-theta) is reported as 100% and the AKT1 phosphorylation (AKT1) is reported as 100%. It also gave a PKA phosphorylation (PKA) of 69%.
Work on 79 (NRKKKRTSFKRKA) [compound 79] yielded a PKC theta phosphorylation (PKC-theta) of 33%, an AKT1 phosphorylation (AKT1) of 7% and a PKA phosphorylation (PKA) of 3%.
In the case of 78 (KFARKSTRRSIRLPE) [compound 78], the PKC theta phosphorylation (PKC-theta) is reported as 47%, the AKT1 phosphorylation (AKT1) is reported as 2% and the PKA phosphorylation (PKA) is reported as 5%.
102 (AGSFKRNSIKKIV) [compound 102] was tested, and the PKC theta phosphorylation (PKC-theta) was 28%, the AKT1 phosphorylation (AKT1) was 6% and the PKA phosphorylation (PKA) was 5%.
For 110 (EGGDRRASGRRK) [compound 110], the PKC theta phosphorylation (PKC-theta) was 22%, the AKT1 phosphorylation (AKT1) was 1% and the PKA phosphorylation (PKA) was 1%.
For 113 (GENVLKKSMKSRVKG) [compound 113], the PKC theta phosphorylation (PKC-theta) was 10%, the AKT1 phosphorylation (AKT1) was 9% and the PKA phosphorylation (PKA) was 0%.
Substance 92 (DGQKRKKSLRKKLD) [compound 92] has a PKC theta phosphorylation (PKC-theta) of 47%, an AKT1 phosphorylation (AKT1) of 2% and a PKA phosphorylation (PKA) of 18%.
84 (QKKSRLRRRASQLKI) [compound 84] was tested, and the PKC theta phosphorylation (PKC-theta) was 87%, the AKT1 phosphorylation (AKT1) was 10% and the PKA phosphorylation (PKA) was 63%.
Substance 100 (WKGKRRSKARKKRK) [compound 100] has a PKC theta phosphorylation (PKC-theta) of 56%, an AKT1 phosphorylation (AKT1) of 3% and a PKA phosphorylation (PKA) of 2%.
For 86 (RQRKRKLSFRRRTDKD) [compound 86], the PKC theta phosphorylation (PKC-theta) was 38%, the AKT1 phosphorylation (AKT1) was 39% and the PKA phosphorylation (PKA) was 87%.
For 80 (KKKKKRFSFKKSFKL) [compound 80], the PKC theta phosphorylation (PKC-theta) was 63%, the AKT1 phosphorylation (AKT1) was 6% and the PKA phosphorylation (PKA) was 3%.
Substance 85 (RFARKGSLRQKNV) [compound 85] has a PKC theta phosphorylation (PKC-theta) of 46%, an AKT1 phosphorylation (AKT1) of 10% and a PKA phosphorylation (PKA) of 81%.
99 (AGWRKKTSFRKPKED) [compound 99] showed a PKC theta phosphorylation (PKC-theta) of 25%, an AKT1 phosphorylation (AKT1) of 6% and a PKA phosphorylation (PKA) of 1%.
89 (EYLERRASRRRAV) [compound 89] showed a PKC theta phosphorylation (PKC-theta) of 60%, an AKT1 phosphorylation (AKT1) of 1% and a PKA phosphorylation (PKA) of 4%.
With 112 (KRPGKKGSNKRPGKR) [compound 112] the PKC theta phosphorylation (PKC-theta) was 17%, the AKT1 phosphorylation (AKT1) was 3% and the PKA phosphorylation (PKA) was 0%.
With 105 (ALRRPSLRREADD) [compound 105] the PKC theta phosphorylation (PKC-theta) was 21%, the AKT1 phosphorylation (AKT1) was 12% and the PKA phosphorylation (PKA) was 84%.
106 (EILSRRPSYRKILND) [compound 106] was tested, and the PKC theta phosphorylation (PKC-theta) was 19%, the AKT1 phosphorylation (AKT1) was 12% and the PKA phosphorylation (PKA) was 30%.
With 101 (GAPPRRSSIRNAH) [compound 101] the PKC theta phosphorylation (PKC-theta) was 29%, the AKT1 phosphorylation (AKT1) was 12% and the PKA phosphorylation (PKA) was 100%.
77 (KKKKRASFKRKSSKKG) [compound 77] gave a PKC theta phosphorylation (PKC-theta) of 74%, an AKT1 phosphorylation (AKT1) of 8% and a PKA phosphorylation (PKA) of 4%.
With 107 (QKRHARVTVKYDRRE) [compound 107] the PKC theta phosphorylation (PKC-theta) was 40%, the AKT1 phosphorylation (AKT1) was 3% and the PKA phosphorylation (PKA) was 2%.
82 (PRLIRRGSKKRPAR) [compound 82] was tested, and the PKC theta phosphorylation (PKC-theta) was 49%, the AKT1 phosphorylation (AKT1) was 9% and the PKA phosphorylation (PKA) was 10%.
94 (KLAVGRHSFSRRSGV) [compound 94] gave a PKC theta phosphorylation (PKC-theta) of 86%, an AKT1 phosphorylation (AKT1) of 9% and a PKA phosphorylation (PKA) of 5%.
“111 (KKKRFSFKKSFKLSGFSFKK) [compound 111]” showed a PKC theta phosphorylation (PKC-theta) of 18%, an AKT1 phosphorylation (AKT1) of 3% and a PKA phosphorylation (PKA) of 3%.
90 (AQIVKRASLKRGKQ) [compound 90] showed a PKC theta phosphorylation (PKC-theta) of 38%, an AKT1 phosphorylation (AKT1) of 3% and a PKA phosphorylation (PKA) of 3%.

From patent US20050064507A1, “Determining kinase specificity” (priority 2003, published 2005)
